# In patent US8932825B2:
# Target: Kringle 3 domain of human plasminogen (K3) with a C-terminal hexa-histidine tag, made in P. pastoris (human) (UniProt P00747)
substance,measurement,value
"beta 1,4-galactosyltransferase from bovine milk (from UniProt P08037) (enzyme)",increase in mass by MALDI-TOF mass spectrometry of the protein and of its released N-glycans,325 Da
